Results published in patent publication US20210009673A1, “METHODS FOR REGULATING BREAST CANCERS” (priority 2018, published 2021).

Tests used:
[1] = system: Akt; assay: phosphorylation of Akt in PTN-stimulated HUVS cells; type: cell-based, human; conditions: PTN 50 ng/ml, 5 minutes, elevated at 20 minutes
Description: FIG. 11: FIG. 11 illustrates: human umbilical vein stromal cells not stimulated or stimulated with 50 ng/ml of PTN for 2, 5, 10 or 20 minutes were used to prepare cell lysates that were analyzed in Western blots probed with anti-phospho threonine 308 Akt (panel A), anti-phospho serine 473 Akt (panel B), anti-phospho-serine 9 GSK3β (panel C), anti-phospho-serine 33, 37 and […] β-catenin (panel D) or anti-actin antibodies (panel E). Akt was immunoprecipitated from those lysates using anti-Akt antibodies, incubated with a fusion peptide containing the 20 N-terminal amino acids of GSK3β and analyzed in Western-blots probed using anti-phospho-serine 9 GSK3β antibodies (panel F).
To pursue this pathway of nuclear import of β-catenin, HUVS cells were stimulated with PTN (50 ng/ml), lysed, and analyzed in Western blots probed with anti-phosphothreonine 308 Akt or anti-phosphoserine 473 Akt antibodies (FIG. 11, panel A and B). […]
The association of adaptor proteins that associate with specific phosphorylated sites in activated EGFR are responsible for the activation of phosphatidyl-inositol 3-kinase (PI3K). […] The cells were stimulated with PTN for 2, 5, 10, and 20 minutes, cell lysates were prepared, and the lysates were analyzed in Western blots probed with anti-phospho-Akt (Ser473), anti-phospho-GSKβ (Ser9), and anti-phospho-β-catenin (Thr42) antibodies. […]

[2] = system: β-catenin; assay: ubiquitination of β-catenin in HUVS cells (Rad23 capture); type: cell-based, human; conditions: 15 and 30 minutes after stimulation with PTN
Description: FIG. 12: FIG. 12 illustrates: human umbilical vein stromal cells not stimulated (lane 1) or stimulated with 50 ng/ml of PTN for 15 (lane 2), or 30 minutes (lane 3) were used to prepare cell lysates that were incubated with Rad23-conjugated agarose beads to pull-down ubiquitinated proteins and analyzed in Western-blots probed with anti-β-catenin antibodies (upper panel) and reprobed with anti-ubiquitin antibodies (lower panel). Cells pre-incubated with LY294002 were stimulated with PTN for 15 minutes (lane 4). Cells pre-incubated with lactacystin were stimulated with PTN for 15 minutes (lane 5).
Human umbilical vein stromal cells were lysed in a buffer prepared with 50 mM Tris, pH 7.2, 150 mM NaCl pH 7.5, 1% NP40, 0.25% sodium deoxicholate, Complete EDTA-free Protease Inhibitor Cocktail and 2 mM sodium orthovanadate. […] The beads were washed 4 times with lysis buffer and analyzed using Western blots.
β-catenin is rapidly degraded through the ubiquitin proteasome proteolytic pathway, thereby setting steady state levels of β-catenin by balancing its degradation with new synthesis of this key regulatory protein. […] Proteins captured with Rad23 Sepharose were eluted and analyzed in Western blots probed with anti-β-catenin antibodies (FIG. 12, upper panel) and the blots were reprobed with anti-ubiquitin antibodies (FIG. 12, lower panel). […]

[3] = system: MCF10A cells; assay: morphological epithelial to mesenchymal transition in transfected MCF10A cells; type: cell-based; conditions: MCF10A cells transfected with RPTPβ/ζ and ALK, stimulated with PTN
Description: FIG. 4: FIG. 4 illustrates in: (A), β-catenin phosphorylated by ALK at tyrosine 333 decreases the association of β-catenin with cadherin. Recombinant E-cadherin serine 692 was phosphorylated with CK2 and GSK3β and incubated with recombinant GST-β-catenin, with GST-β-catenin phosphorylated in vitro by ALK, with GST-β-catenin Y333F, or with GST-β-catenin K292A, Y333F, K335A. The GST-conjugated proteins were captured with glutathione-conjugated beads and the phospho-Ser692-E-cadherin that associated with the GST-conjugated proteins was eluted and analyzed in Western blots probed with anti-β-catenin and anti-E-cadherin antibodies. […] After incubation for 20 minutes at 37° C., β-catenin was then captured with glutathione beads and, after extensive washing, eluted with SDS buffer and analyzed in Western blots with either anti-pan-cadherin antibodies, anti-phospho-tyrosine antibodies, or anti-β-catenin antibodies to determine if β-catenin phosphorylated by ALK at tyrosine 333 associates with cadherin. […] The ratio of cells dissociated in calcium-containing media (NTC) vs. the cells dissociated in calcium-free media (NTE) (a “dissociation index,” see Experimental Procedures) was measured. […] The morphological appearance was then analyzed 36 hours later and compared with cells transfected with an equal amount of control empty vector. […]

B1: pleiotrophin (protein, UniProt P21246 33-168, looked up)
Pleiotrophin: GKKEKPEKKVKKSDCGEWQWSVCVPTSGDCGLGTREGTRTGAECKQTMKTQRCKIPCNWKKQFGAECKYQFQAWGECDLNTALKTRTGSLKRALHNAECQKTVTISKPCGKLTKPKPQAESKKKKKEGKKQEKMLD
[1]
  phosphorylation of Akt threonine 308 and serine 473: rapid increase
[2]
  ubiquitinated β-catenin: decreased sharply
[3]
  cell morphology: assumed a mesenchymal fibroblast-like shape
